{
  "source": "patent US20240228604A1",
  "about": "(ALCHEMAB THERAPEUTICS, published 2024)",
  "binders": {"B1": {"name": "ATL_0005262 (antibody, human IgG1, V domains shown)", "VH": "QVQLQESGPGLVKPSETLSLTCTVSGGSISSYFWTWIRQPPGKRLEWIGYIHNSGTTNQNPSLKSRVTISIDTSKNHFSLKLSSVTAADTAVYYCARGRGMATLPFDYWGQGTLVTVSS", "VL": "not shown", "notes": "also called ATL_5262; ATL5262"}, "B2": {"name": "ATL_0006001 (antibody, IgG1, V domains shown)", "VH": "B1 VH", "VL": "not shown", "notes": "VL pairing variant of ATL_5262; also called ATL_6001"}, "B3": {"name": "ATL_0006039 (antibody, IgG1, V domains shown)", "VH": "B1 VH with T73K", "VL": "not shown", "notes": "also called ATL_6039"}, "B4": {"name": "ATL_0006191 (antibody, IgG1, V domains shown)", "VH": "QVQLQESGPGLVKPSETLSLTCTVSGGSIGSYFWSWIRQTPGKGLEWIGYIHYSGSSNYNPSLKSRVTISVDTFKNQFSLKLTSVTAADTAVYYCARGRGMATLPFDYWGQGTLVTVSS", "VL": "not shown", "notes": "ATL_5262 homologue VH paired with the VL of ATL_5262; also called ATL_6191; ATL6191"}, "B5": {"name": "ATL_0006534 (antibody, V domains shown)", "VH": "not shown", "VL": "NFMLTQPHSVLESPGKTVTIPCTRSSGSIASNYVQWYQQRPGSAPTAVIFEDNVRPSGVPDRFSGSVDSSSNSASLTISGLKTEDEGDFYCQSYDSSGHVVFGGGTKVTVL", "notes": "also called ATL_6534; Y_0001393-001"}, "B6": {"name": "ATL_0005338 (antibody, V domains shown)", "VH": "EVKLDETGGGLVQPGRPMKLSCVASGFTFSDYWMNWVRQSPEKGLEWVAQIRNKPYNYETYYSDSVKGRFTISRDDSKSSVYLQMNNLRVEDMGIYYCTGSYYGMDYWGQGTSVTVSS", "VL": "DVVMTQTPLSLPVSLGDQASISCRSSQSLVNSNGNTYLRWYLQKPGQSPKVLIYKVSNRVSGVPDRFSGSGSGTDFTLKISRVEAEDLGVYFCSQSTHVPWTFGGGTKLEIK", "notes": "also called ATL_5338"}},
  "key": {"[1]": {"molecular_target": "T1, rmUNC5C, in-house production from HEK293F cells (N-terminal His and FLAG tag + amino acids 41-380 of murine … (mouse, UniProt O08747 41-380))", "T1 construct": "extracellular domain; also called mouse UNC5C (Inhouse antigen); recombinant mouse UNC5C", "T1 sequence (O08747 other isoform, or with tags, fused parts or gaps limits assumed)": "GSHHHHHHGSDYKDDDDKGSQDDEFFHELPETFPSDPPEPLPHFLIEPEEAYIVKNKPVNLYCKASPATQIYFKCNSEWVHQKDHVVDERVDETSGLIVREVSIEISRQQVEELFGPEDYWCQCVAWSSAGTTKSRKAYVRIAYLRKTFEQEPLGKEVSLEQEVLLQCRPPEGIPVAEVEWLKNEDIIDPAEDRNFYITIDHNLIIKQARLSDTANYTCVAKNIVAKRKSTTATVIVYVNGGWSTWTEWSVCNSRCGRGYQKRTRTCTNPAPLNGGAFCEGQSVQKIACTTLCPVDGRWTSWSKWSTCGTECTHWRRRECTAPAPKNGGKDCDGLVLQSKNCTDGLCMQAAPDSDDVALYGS", "assay": "direct ELISA", "method": "(§1) The plate was washed with PBS. Plates were blocked with 200 μl/well of blocking solution (1% BSA w/v in PBS) for 1 hour at room temperature. Following this, the blocking solution was removed and antibodies to be assessed were diluted in dilution series (1 μM to 0.05 nM) in blocking solution (1% BSA w/v in PBS) and applied to the plate. Plates were incubated at room temperature for 1 hour. The plate was washed with PBS/0.1% Tween. […] The plate was washed with PBS/0.1% Tween and TMB solution (Life Technology; #002023) added. Plates were incubated for 5 minutes at room temperature prior to the addition of stopping solution (0.5M sulphuric acid). Absorbance was read on Molecular Devices FilterMaxF5 plate reader at 450 nm. Analysis was performed using a non-linear fit curve fitting algorithm on GraphPad prism and EC50 calculated.\n(§2) To measure the binding potency of antibodies to UNC5C protein, antibodies were assessed in a direct ELISA format for binding to human UNC5C. In addition, a selection of these antibodies was also screened for binding to mouse, cyno, and rat UNC5C in a direct ELISA format."}, "[2]": {"molecular_target": "T2, Recombinant rat UNC5C (N-terminal His and FLAG tag), in-house production from HEK293F cells (rat, UniProt Q761X5 41-380)", "T2 construct": "also called rat UNC5C (inhouse antigen); rat antigen", "T2 sequence (Q761X5 other isoform, or with tags, fused parts or gaps limits assumed)": "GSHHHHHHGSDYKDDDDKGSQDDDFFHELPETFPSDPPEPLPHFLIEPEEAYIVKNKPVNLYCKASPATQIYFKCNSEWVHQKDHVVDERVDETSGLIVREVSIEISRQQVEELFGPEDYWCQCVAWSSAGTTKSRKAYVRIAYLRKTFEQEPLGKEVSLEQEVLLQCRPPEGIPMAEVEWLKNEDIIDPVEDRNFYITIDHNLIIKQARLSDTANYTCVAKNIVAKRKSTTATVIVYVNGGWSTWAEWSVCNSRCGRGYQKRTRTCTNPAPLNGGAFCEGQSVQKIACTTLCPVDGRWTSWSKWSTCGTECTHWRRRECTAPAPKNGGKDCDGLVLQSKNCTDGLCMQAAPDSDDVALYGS", "assay": "direct ELISA", "method": "as §1, §2"}, "[3]": {"molecular_target": "T3, Human recombinant UNC5A (BLI antigen) (Human, UniProt Q6ZN44 26-306)", "T3 construct": "Captured by His tag; also called UNC5A ectodomain", "T3 sequence (Q6ZN44 other isoform, or with tags, fused parts or gaps)": "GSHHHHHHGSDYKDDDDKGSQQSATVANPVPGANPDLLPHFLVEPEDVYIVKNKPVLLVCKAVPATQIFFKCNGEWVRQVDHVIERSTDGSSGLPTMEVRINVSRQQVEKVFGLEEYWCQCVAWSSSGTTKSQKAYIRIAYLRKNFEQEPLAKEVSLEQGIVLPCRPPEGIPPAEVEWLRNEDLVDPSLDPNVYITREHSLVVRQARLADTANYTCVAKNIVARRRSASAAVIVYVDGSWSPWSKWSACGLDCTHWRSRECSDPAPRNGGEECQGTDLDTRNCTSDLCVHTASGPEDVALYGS", "assay": "BLI, antigen captured by His tag, antibody as analyte", "text": "(§3) Antigen was loaded as ligand and dipped into antibody as analyte during association, and assay buffer during dissociation.\n(§4) Purified recombinant antigens were purchased from a commercial supplier or prepared and purified in-house and details are shown in Table 2."}, "[4]": {"molecular_target": "T4, Human recombinant UNC5B (BLI antigen) (Human, UniProt Q8IZJ1 27-377)", "T4 construct": "also called UNC5B ectodomain", "assay": "BLI, antigen captured by His tag, antibody as analyte", "text": "as §3, §4"}, "[5]": {"molecular_target": "T5, Human recombinant UNC5D (BLI antigen) (Human, UniProt Q6UXZ4 33-379)", "T5 construct": "also called UNC5D ectodomain", "T5 sequence (Q6UXZ4 other isoform, or with tags, fused parts or gaps)": "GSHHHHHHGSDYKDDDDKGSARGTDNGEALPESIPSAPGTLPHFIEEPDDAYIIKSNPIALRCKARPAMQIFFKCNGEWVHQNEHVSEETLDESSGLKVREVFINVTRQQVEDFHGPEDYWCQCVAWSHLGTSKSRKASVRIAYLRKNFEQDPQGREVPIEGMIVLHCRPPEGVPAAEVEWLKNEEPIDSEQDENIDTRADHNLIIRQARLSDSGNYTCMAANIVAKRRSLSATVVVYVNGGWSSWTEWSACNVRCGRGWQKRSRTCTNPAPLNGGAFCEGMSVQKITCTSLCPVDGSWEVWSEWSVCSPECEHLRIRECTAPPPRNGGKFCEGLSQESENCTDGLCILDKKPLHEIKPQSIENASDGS", "assay": "BLI, antigen captured by His tag, antibody as analyte", "text": "as §3, §4"}, "[6]": {"molecular_target": "T6, Human Neogenin (R&D Systems catalogue number 8607-NE; BLI antigen) (Human, UniProt Q92859 34-1105)", "T6 construct": "extracellular domain; Bought protein; also called neogenin-1 ectodomain; NEO1", "T6 sequence (looked up)": "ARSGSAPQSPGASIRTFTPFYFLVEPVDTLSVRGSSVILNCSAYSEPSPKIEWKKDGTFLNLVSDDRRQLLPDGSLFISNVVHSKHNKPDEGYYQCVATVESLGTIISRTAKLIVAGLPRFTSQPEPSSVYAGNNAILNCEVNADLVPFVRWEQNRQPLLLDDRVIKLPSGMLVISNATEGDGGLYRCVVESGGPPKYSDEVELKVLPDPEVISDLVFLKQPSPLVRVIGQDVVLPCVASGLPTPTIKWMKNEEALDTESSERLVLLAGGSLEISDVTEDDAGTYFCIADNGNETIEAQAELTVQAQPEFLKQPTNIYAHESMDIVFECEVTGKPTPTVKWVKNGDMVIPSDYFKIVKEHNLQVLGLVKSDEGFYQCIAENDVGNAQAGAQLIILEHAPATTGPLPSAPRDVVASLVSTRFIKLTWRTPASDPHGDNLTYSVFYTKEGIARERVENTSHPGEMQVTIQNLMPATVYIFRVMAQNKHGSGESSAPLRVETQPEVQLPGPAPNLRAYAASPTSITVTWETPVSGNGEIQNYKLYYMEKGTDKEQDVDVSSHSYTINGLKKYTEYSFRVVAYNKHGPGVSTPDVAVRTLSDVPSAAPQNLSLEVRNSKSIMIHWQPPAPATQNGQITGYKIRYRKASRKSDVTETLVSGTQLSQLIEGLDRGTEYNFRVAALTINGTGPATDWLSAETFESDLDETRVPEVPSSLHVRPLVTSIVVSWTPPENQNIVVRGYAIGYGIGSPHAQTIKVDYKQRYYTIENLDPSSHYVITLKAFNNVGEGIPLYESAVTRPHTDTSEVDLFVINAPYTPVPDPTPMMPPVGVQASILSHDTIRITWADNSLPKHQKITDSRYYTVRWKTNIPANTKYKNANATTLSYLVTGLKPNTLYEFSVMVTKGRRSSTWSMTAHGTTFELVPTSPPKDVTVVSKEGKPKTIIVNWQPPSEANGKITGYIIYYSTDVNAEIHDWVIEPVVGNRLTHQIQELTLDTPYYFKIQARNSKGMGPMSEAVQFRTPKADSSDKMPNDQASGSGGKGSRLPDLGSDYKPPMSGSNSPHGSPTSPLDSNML", "assay": "BLI, antigen captured by His tag, antibody as analyte", "text": "as §3, §4"}, "[7]": {"molecular_target": "T7, Human recombinant DCC (BLI antigen) (Human, UniProt P43146 26-1097)", "T7 construct": "also called Netrin receptor DCC ectodomain", "T7 sequence (P43146 other isoform, or with tags, fused parts or gaps)": "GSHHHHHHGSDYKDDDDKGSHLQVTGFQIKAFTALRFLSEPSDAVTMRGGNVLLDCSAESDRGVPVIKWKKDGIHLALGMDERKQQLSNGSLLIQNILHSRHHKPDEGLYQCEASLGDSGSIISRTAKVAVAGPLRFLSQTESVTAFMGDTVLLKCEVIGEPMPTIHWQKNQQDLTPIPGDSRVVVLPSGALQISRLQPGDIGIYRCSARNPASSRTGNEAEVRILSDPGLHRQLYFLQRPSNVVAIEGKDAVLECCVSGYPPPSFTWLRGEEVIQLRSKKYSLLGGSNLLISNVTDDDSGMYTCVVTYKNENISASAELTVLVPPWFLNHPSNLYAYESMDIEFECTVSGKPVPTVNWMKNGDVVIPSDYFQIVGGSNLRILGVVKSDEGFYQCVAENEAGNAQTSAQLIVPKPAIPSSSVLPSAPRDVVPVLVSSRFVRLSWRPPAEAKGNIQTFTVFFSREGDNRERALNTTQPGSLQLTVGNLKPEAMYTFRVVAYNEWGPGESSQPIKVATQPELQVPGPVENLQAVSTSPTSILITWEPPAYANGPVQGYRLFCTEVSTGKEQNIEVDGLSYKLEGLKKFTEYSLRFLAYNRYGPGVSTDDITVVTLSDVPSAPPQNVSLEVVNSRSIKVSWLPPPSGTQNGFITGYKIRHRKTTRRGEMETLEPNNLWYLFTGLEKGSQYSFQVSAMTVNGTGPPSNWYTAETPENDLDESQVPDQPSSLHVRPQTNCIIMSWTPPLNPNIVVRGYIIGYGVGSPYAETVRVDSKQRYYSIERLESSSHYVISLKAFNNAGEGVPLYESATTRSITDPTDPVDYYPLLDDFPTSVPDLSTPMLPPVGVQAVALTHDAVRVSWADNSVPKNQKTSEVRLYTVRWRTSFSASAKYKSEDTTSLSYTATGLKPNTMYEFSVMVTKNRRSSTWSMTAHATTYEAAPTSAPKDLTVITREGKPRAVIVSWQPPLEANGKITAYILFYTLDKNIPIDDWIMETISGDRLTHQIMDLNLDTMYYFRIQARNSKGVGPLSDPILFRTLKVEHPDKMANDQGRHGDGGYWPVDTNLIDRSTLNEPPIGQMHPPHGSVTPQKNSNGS", "assay": "BLI, antigen captured by His tag, antibody as analyte", "text": "as §3, §4"}, "[8]": {"molecular_target": "T8, mouse UNC5C in frozen C57BL/6 mouse brain sections (mouse, UniProt O08747 41-931)", "T8 construct": "Native protein in fixed tissue sections; also called UNC5C in its natural central nervous system (CNS) context; mouse brain tissue", "T8 sequence (O08747 41-931 limits assumed)": "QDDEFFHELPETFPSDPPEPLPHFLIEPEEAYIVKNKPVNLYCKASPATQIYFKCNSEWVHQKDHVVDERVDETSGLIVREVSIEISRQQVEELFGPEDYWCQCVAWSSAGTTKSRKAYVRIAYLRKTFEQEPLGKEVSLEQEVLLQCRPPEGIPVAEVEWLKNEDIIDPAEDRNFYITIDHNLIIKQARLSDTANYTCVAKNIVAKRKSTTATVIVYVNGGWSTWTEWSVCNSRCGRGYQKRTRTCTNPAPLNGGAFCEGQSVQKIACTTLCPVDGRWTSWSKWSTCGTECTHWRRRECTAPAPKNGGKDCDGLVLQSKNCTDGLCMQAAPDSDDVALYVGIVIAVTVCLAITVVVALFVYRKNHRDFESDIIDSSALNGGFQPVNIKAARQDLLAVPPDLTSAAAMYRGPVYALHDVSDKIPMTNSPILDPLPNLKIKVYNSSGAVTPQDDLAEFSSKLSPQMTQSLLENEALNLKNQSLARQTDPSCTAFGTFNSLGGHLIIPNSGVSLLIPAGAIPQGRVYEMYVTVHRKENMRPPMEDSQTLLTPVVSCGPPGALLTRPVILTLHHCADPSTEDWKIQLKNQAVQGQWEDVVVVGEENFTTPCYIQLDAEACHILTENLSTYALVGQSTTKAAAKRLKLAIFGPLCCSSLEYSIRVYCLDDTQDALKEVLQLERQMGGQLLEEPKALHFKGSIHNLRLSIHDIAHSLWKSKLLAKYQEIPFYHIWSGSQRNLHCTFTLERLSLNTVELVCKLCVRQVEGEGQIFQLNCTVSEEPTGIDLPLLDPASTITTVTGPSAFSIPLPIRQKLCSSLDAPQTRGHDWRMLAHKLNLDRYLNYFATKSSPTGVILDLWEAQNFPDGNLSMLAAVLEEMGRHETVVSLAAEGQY", "assay": "immunofluorescence on frozen mouse brain sections, 10 µg/ml antibody"}, "[9]": {"molecular_target": "T9, UNC5C recombinant human antigen, Fc-tagged (R&D Systems, #1005-UN) (human, UniProt O95185 41-380, limits assumed)", "T9 construct": "Bought protein; also called rhUNC5C; not shown: Fc tag of the bought protein", "T9 sequence (O95185 41-380 limits assumed)": "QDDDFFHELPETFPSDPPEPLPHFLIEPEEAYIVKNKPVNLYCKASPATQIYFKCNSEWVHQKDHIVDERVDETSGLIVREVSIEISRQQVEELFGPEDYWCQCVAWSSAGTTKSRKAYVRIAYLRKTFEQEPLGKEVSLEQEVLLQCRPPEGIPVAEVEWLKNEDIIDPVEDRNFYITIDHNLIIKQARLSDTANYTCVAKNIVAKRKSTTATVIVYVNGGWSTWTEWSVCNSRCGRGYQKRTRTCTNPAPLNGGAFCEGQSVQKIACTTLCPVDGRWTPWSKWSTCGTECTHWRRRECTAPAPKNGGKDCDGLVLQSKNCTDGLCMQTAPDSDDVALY", "assay": "direct ELISA", "method": "as §1, §2"}, "[10]": {"molecular_target": "T9, UNC5C recombinant human antigen, …", "assay": "ELISA, antigen down"}, "[11]": {"molecular_target": "T10, Recombinant cyno UNC5C (N-terminal His and FLAG tag), in-house production from HEK293F cells (cyno, UniProt O95185 41-380 (human entry), limits assumed)", "T10 construct": "also called cyno UNC5C (Inhouse antigen); cyno antigen", "T10 sequence (O95185 other isoform, or with tags, fused parts or gaps limits assumed)": "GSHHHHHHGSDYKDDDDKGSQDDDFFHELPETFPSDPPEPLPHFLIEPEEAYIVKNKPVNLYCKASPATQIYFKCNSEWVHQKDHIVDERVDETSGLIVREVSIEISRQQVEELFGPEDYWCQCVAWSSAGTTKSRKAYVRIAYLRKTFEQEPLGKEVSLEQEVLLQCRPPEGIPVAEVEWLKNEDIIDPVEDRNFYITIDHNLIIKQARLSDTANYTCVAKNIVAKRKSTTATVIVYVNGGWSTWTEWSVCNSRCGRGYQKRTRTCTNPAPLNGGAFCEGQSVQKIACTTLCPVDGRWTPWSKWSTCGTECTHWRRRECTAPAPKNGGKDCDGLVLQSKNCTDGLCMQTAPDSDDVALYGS", "assay": "direct ELISA", "method": "as §1, §2"}},
  "note": "Where a chain is given by its changes, count along the chain named.",
  "data": [
    {"binder": "B1", "values": [
      {"measurement": "binding result", "setting": "[1]", "value": "binds"},
      {"measurement": "binding result", "setting": "[2]", "value": "binds"},
      {"measurement": "binding result", "setting": "[3]", "value": "no binding (tested: up to 100 nM)"},
      {"measurement": "binding result", "setting": "[4]", "value": "no binding (tested: up to 100 nM)"},
      {"measurement": "binding result", "setting": "[5]", "value": "no binding (tested: up to 100 nM)"},
      {"measurement": "binding result", "setting": "[6]", "value": "no binding (tested: up to 100 nM)"},
      {"measurement": "binding result", "setting": "[7]", "value": "no binding (tested: up to 100 nM)"},
      {"measurement": "binding result", "setting": "[8]", "value": "binds"}
    ]},
    {"binder": "B2", "values": [
      {"measurement": "signal over lysozyme control (fold)", "setting": "[9]", "value": "≥ 3", "unit": "fold"},
      {"measurement": "binding result", "setting": "[1]", "value": "binds"}
    ]},
    {"binder": "B3", "values": [
      {"measurement": "binding result", "setting": "[2]", "value": "binds"}
    ]},
    {"binder": "B4", "values": [
      {"measurement": "binding result", "setting": "[1]", "value": "binds"},
      {"measurement": "binding result", "setting": "[2]", "value": "binds"}
    ]},
    {"binder": "B5", "values": [
      {"measurement": "EC50", "setting": "[10]", "value": 0.01, "unit": "nM"}
    ]},
    {"binder": "B6", "values": [
      {"measurement": "binding result", "setting": "[2]", "value": "no binding (tested: <1 µM)"},
      {"measurement": "binding result", "setting": "[11]", "value": "no binding (tested: <1 µM)"}
    ]}
  ]
}
